Measured values: the DeepSol protein solubility set

Test: soluble on expression in E. coli; label from the status in PepcDB or PDB records

| Sequence | soluble on expression in E. coli |
| --- | --- |
| MNTCPLCHSTDLVAYHHDKRRPYQQCQRCALVSVPAEFYLSRDEEKAEYDKHENHPQDLGYQQFLDRTLAPLLARFESTALGLDFGCGEGKALSLMAQARGYRVENYDLYYANHPELLTRQYDFITLTEVIEHVSDADALLTQLKGMLKPKGILAVMTKRVLNPTAFSTWHYKNDPTHINFYAEATFQWLAEHYGWRLEVIDKDVVFLYQANLEHHHHHH | soluble |
| MLITHLIDSLSDRAVITPLTPTSVIIYDKNELKVYVGFTNNRNSLEYTKEVVLLLSTEIPKKAEIREIIVSKNGDYVILEGPRSLFVVRIGAEILVAKPDRLPSECFCECYPLHDSLLLQNISLSVVKVRLLPEKCDEKTFVTAVLFSDNCIRFYNLQKKFDSLLLAVDFRNHLHQVHDENVANNTFGLQKALVSFDLIPPKPNTSHFSIISIDSDCDFYTSFVHFSCFKEGYAPRIHRIEPVDGLPCDPLDLRYIQTTNPRICSVFVLVSGGGVLSHLVVFPNEFGEFRFLVKDQLRLPSSNGDPRIVQNQIRSLKVSRYEIATSSSLFSVNIFPWFEALTSISPTSTLEKETRVSELVDAVIPSDELSNTTKWTGARALRAVSVQLTQSLATEEEELLPESENIMHLVILENKDGQPAHLFNISTFDNIWSTENKTSFGRDSVSQPPMKSTGSLEQQLAALKPLAACVISEKVSCEEAIDAAMKFFDAVDERLKKHCEISKLFVERCLAVSSSAQALDEKQQSVDQRLIEETNTVEELKIRMHETKERMEGARKGINVLFHRVDENVPLSDNEIRIFERLKEHQKMLSDMTKLVPKMTLDSNEIHRMANIVLKKRGTGEEQNRFAAVEKNATEIESLEARENKLNTGISELSI | not soluble |
| GKDFTYNVDANVSFARNKILYMDEVPKQFSYMNQTGGSTGRQTGVYNYIRLYQYSDFITGADGELTLKPELPQPYQKVYPGDAMYADLNGDHIVDGNDKSVAGYATRPEYVFGMNMGFDWKGFNFTMQWVGSKNVNRMYDIEYRIPYTNAGKRGLLTYFYDGCWTPENQLGATYPRPSEESESWNSEPSTLWLVDASYLRLKSLSFGYTITGKKFLKKLGLSSLGLNFSGYNLLTFSPLKYLDPESDPNRFGDYPLIKVYSFGLNLNF | not soluble |
| MSIEGGNYRRIRNFVDRECAKECIEDFSCFGYEWNSEEKICYLKSRSTSGKLIAKPNTMVGFCQDDEDEVRYRLQDHVIVGPIVMEADDVPDGEECKENCRKVGALYYSWRPNSDNQRSNVVPVEEEEDDEEQEVLGHCECISTMNELRLEYDAFSGFIPIPKHKHRRSILLRPFEI | not soluble |
| MGSDKIHHHHHHMRGRCPVSRAMMPTGPSGVEVSSVEMPGTKGVSVNLTRSLDGTVFTTLTRLSESVDMIDLVNEAVVQSLDEIAGYEAQLPSAKIATAMCFRAMQSITDYAPTTIEAADRLISNAYEIDPQPVFLAWRAYLRTFLLGESGGGNSQAISEEMERFINLAEEREPGNSIILSLAAFIRSMWLLSSEDALDLAQRSHALNPSNPYGISYLGMVHTHLGNFEEGYRLTRRANALTVPRGAKSSIRYVAMRSAACAGRYTEAIKIGEALGRDAPHFVAPKRLMGLLYMKCGRVADAEAMVETLRQHEPDYSMEKMRDAFRASPLLHRSKLGKAG | not soluble |
| MATNWGSLLQDKQQLEELARQAVDRALAEGVLLRTSQEPTSSEVVSYAPFTLFPSLVPSALLEQAYAVQMDFNLLVDAVSQNAAFLEQTLSSTIKQDDFTARLFDIHKQVLKEGIAQTVFLGLNRSDYMFQRSADGSPALKQIEINTISASFGGLASRTPAVHRHVLSVLSKTKEAGKILSNNPSKGLALGIAKAWELYGSPNALVLLIAQEKERNIFDQRAIENELLARNIHVIRRTFEDISEKGSLDQDRRLFVDGQEIAVVYFRDGYMPRQYSLQNWEARLLLERSHAAKCPDIATQLAGTKKVQQELSRPGMLEMLLPGQPEAVARLRATFAGLYSLDVGEEGDQAIAEALAAPSRFVLKPQREGGGNNLYGEEMVQALKQLKDSEERASYILMEKIEPEPFENCLLRPGSPARVVQCISELGIFGVYVRQEKTLVMNKHVGHLLRTKAIEHADGGVAAGVAVLDNPYPV | soluble |
| MQYNPLGKTDLRVSRLCLGCMTFGEPDRGNHAWTLPEESSRPIIKRALEGGINFFDTANSYSDGSSEEIVGRALRDFARREDVVVATKVFHRVGDLPEGLSRAQILRSIDDSLRRLGMDYVDILQIHRWDYNTPIEETLEALNDVVKAGKARYIGASSMHASQFAQALELQKQHGWAQFVSMQDHYNLIYREEEREMLPLCYQEGVAVIPWSPLARGRLTRPWGETTARLVSDEVGKNLYKESDENDAQIAERLTGVSEELGATRAQVALAWLLSKPGIAAPIIGTSREEQLDELLNAVDITLKPEQIAELETPYKPHPVVGFK | soluble |
| MAEPLLVVGLGNPGANYARTRHNLGFVVADLLAARLGAKFKAHKRSGAEVATGRSAGRSLVLAKPRCYMNESGRQIGPLAKFYSVAPANIIVIHDDLDLEFGRIRLKIGGGEGGHNGLRSVVAALGTKDFQRVRIGIGRPPGRKDPAAFVLENFTPAERAEVPTICEQAADATELLIEQGMEPAQNRVHAWKLAAALEHHHHHH | soluble |
| MSPLNLHTDTTPSLLTFSDVKSFEKIYTMYWARVYATCYNTIKEREVAKEMVQDIFKSLWERKDELEIKTSVEHYLVRAAKFKVFEYIRNKTNQKKHTACALEDYCSATNCTEDAILYSNLTEKVGVLVDRLPCQCRNVYTLSRTEGLTNKEIATRLLISERAVEQHITKALRFLRENLQEYRS | not soluble |
| MGSDKIHHHHHHMPYNATVLRIMIASPSDVAKERNIIRNIIYEWNTINSIDRKIVLDPVGWETHAHPDMSGRAQSIINKQILKDCDLLVAVFWTRLGTPTGKFISGTVEEIEEHLKSGKQAMIYFSRAPVYLESVDQDQYKALCDFRSLCQQKGLIETYESLEEFQHKFSRQISQKIIQNYSSLESTNNTLEVSFAPELPRLSDLGKDLLIEVASDSNGELICLPVMGGLMIETNNKQLADMGNARSEASWKSAISELIKYELMESLGGKGEVYRLTEKGYQVADHLGAP | not soluble |
| MGSDKIHHHHHHMKRACVIGAGFGGLALAIRLQSGGVQTTLIEARDKPGGRAYFWEKDGFTFDGGPTVITDPACLEELWALKGHRMADDVELMPVMPFYRLNWADGTNFDYSNDDASLRAEIAKLEPADVAGYDDFLRYSAGVFEEGYVKLGAVPFLDFASMIKAAPALARYQAWRSVYSMVSSFVRNEKLREAFSFHTLLVGGNPMTTSAIYALIHKLEKDGGVWWAKGGTNRLIEGMVTHFRRIGGEVRIGDPVTRVETLGTRVTGVETRSGWSGKFDAVASNADVMHSYRDLLSDNSHAKRRAKSLGKKRFSPSLFVVHFGIEGTWPGIPHHMILFGPRYKGLLDDIYTHGVLPQDFSIYLHHPTVTDPSVAPEGMSTFYALVPVANMGKLPVNWDEVGPILEKRILDEVGRRLIPDIHTRIVTKFHYAPSDFSTDLSAHLGSAFSLEPLLTQSAWFRAHNRDDAISNFYLVGAGTHPGAGIPGVVGSAKATARLMLEDLS | not soluble |
| MITQEMKDLINNQLAMVATVDAKGQPNIGPKRSMRLWDDKTFIYNENTDGQTRINIEDNGKIEIAFVDRERLLGYRFVGTAEIQTEGAYYEAAKKWAQGRMGVPKAVGIIHVERIFNLQSGANAGKEINSESN | not soluble |
| MSLTSEIVNSAWKVIPMFESRSIPLTVDFYTKTLGFELGSVKPEDNESELYFCSLAIGKKADANFYFSKVTPETFKSSHAMIGLGTRQLDDYYVYLKGKIEVEFSEDIEDKPWGFRQFTIKDTDGNSLTFFKFLEGGNPGDEGHHHHHH | soluble |
| MKTPNAQEAEGQQTRAAAGRATGSANMTKKKVSQKKQRGRPSSQPRRNIVGCRISHGWKEGDEPITQWKGTVLDQVPINPSLYLVKYDGIDCVYGLELHRDERVLSLKILSDRVASSHISDANLANTIIGKAVEHMFEGEHGSKDEWRGMVLAQAPIMKAWFYITYEKDPVLYMYQLLDDYKEGDLRIMPESSESPPTEREPGGVVDGLIGKHVEYTKEDGSKRIGMVIHQVEAKPSVYFIKFDDDFHIYVYDLVKKS | soluble |
| MGSDKIHHHHHHMSEEPRYLAVDVGGTNLKYALINRSGQMIKKSRMETPHEGLTQFLEAIEKISDKLKGQLNGVAFSTPGRVDTTTDTIYCRNSTLPYLNEVCLPRKLQKLGLPISVENDGKSAALAESWLGNLNDVKNGMAIVLGTCVGGGIMLDGHLWAGSRRLAGEVSLMPADQTNLADDGLFGKTGSAVRMIEAVNTVIGASCLTDGHCAFAAINAGQAQATQIFRQYAREVAALILNVQTVLDLDRYVIGGGISFQPILIDEINRQYDWILERRPWVKSTIARPEILSSRFHNDANLYGALYRLFNKLDAKHDVPIDLDNLLVNAGR | not soluble |
| MKTKFYDYQGEHLILYFAGWGTPPDAVNHLILPENHDLLICYDYQDLNLDFDLSAYRHIRLVAWSMGVWVAERVLQGIRLKSATAVNGTGLPCDDSFGIPYAIFKGTLENLTENTRLKFERRICGDKASFERYQLFPARPFDEIHQELTALFAMIQQDKRIDLIHWANAWVSSRDKIFTPANQHQYWALRCAVQEIEGEHYVFSRFTHWSALWDH | not soluble |
| MAHHHHHHMPAVKWSSPVVRNELMSLTRLPAEMQRAAAAAVAAHKNAYSPYSNFSVGAALLHDDGSVTAGCNYENCTLQSCCAERCAIVRANVEGHRRANAVAVYGRSYGAATPTNPPPVDALCPPCGLCRQLLVEVADLSQNFEEFMVVLVALDAQRAKVVRLADLVPAKFGPADIGMDVTQLGCHPSA | not soluble |
| MGSDKIHHHHHHMYCNMLISLLTFISVEILYNKSNKKYGGNDMSIVQLYDITQIKSFIEHSNYESASYLYKLPQQYNEIDVLITDAIESPGVFSIKENDSIKAIILSFAYDKNKFKVIGPFVADNYVLSVDTFETLFKAMTSNQPDDAVFNFSFEEGIQQYKPLMKVIQASYNFTDYYIEARTRLEEDMHQPNIIPYHKGFYRAFSKLHTTTFKYQAQSPQDIIDSLDDHHHLFLFVSEGLLKGYLYLEIDSQQSIAEIKYFSSHVDYRLKGIAFELLAYALQYAFDNFDIRKVYFKIRNKNNKLIERFNGLGFHINYEYIKFKFESRNVKDQTIPE | not soluble |
| MGSDKIHHHHHHMTTRVIALDLDGTLLTSKKTILPASLEALARAREAGYQVIVVTGRHHVAIHPFYQALALDTPAICCNGTYLYDYHAKKVLAADPMPVEQAVSLTAMLAKQQIHGLAYVDDAMLYEHPTGHVIRTRNWAQALPEDQRPVFAQVDSLAQAVREVNAVWKFALTDDDIPRLQRFAQQVGETLGLECEWSWHDQVDIARAGNSKGKRLAQWVADQGLSMQDVMAFGDNYNDLSMLEAAGTGVAMGNAVDEVKARANIVIGDNESTSIAEFIYRQLL | not soluble |
| MSLNHSVRKCGYLRKQKHGHKRFFVLRGPGAGGDEATAGGGSAPQPPRLEYYESEKKWRSKAGAPKRVIALDCCLNINKRADAKHKYLIALYTKDEYFAVAAENEQEQEGWYRALTDLVSEGRAAAGDAPPAAAPAASCSASLPGALGGSAGAAGAEDSYGLVAPATAAYREVWQVNLKPKGLGQSKNLTGVYRLCLSARTIGFVKLNCEQPSVTLQLMNIRRCGHSDSFFFIEVGRSAVTGPGELWMQADDSVVAQNIHETILEAMKALKELFEFRPREGHHHHHH | soluble |
| MDWFSWLSRTNLEASLIYEYGLSFSNNELEYEDIAYFNHEFLQSMGISIAKHRLEILKLARRDRKPSPLTARSIFRVLIAIKKTGKCFSEHVRAWIRREESSRALVVVSRSTSSSGNGRWKSARKKRLVMPSNGNGVKEERLLLTNGTPCRLDSFSNPKVSSGYEDDDNHWGNKDVEEKIKWDSMFQNLKPT | soluble |
